The source of these data is paper PMC13542264.

Test [1] deals with His-gephyrin, rat gephyrin P1, wild type, full length (rat). The test is described as follows: SEC; analytical Superose 6 increase 5/10, 4 °C, 50 mM Tris/HCl, 300 mM NaCl pH 7.4; protein reduced with 1 mM TCEP, also the oxidised peak collected and re-reduced. For orientation: SEC sorts molecules by how far they enter the pores of the column.
Test [2] has as its target GCN4-GlyR, GCN4 receptor model for the glycine receptor β subunit. The test is described as follows: co-sedimentation; sedimentation assay of in vitro phase separation: proteins mixed in 25 mM Tris pH 7.4, 150 mM NaCl, 10 min 25 °C, 17,000 x g 10 min 4 °C; pellet and supernatant on Coomassie gels; gephyrin oxidised or reduced.
The target in test [3] is gephyrin, endogenous in mouse brain (mouse (endogenous in brain)) (UniProt Q8BUV3). The experiment in a line: non-reducing SDS-PAGE and Western blot; brain lysates of mice perfused with NEM-containing PBS; SDS sample buffer with 5 mM DTT or without reductant; shows only multimers that survive SDS. On the technique in general: In western blotting, separated proteins are transferred to a membrane and probed.

For “His-gephyrin, rat gephyrin P1, wild type, full length (natural protein)”, the stoichiometry N (in general, the number of molecules, sites or subunits per partner or assembly) in test [1] amounted to 6. Besides, the percent of gephyrin in the pellet fraction in test [2] was 60%.

“gephyrin, endogenous in mouse brain (from UniProt Q8BUV3 1-769) (natural protein)” yielded a fractional abundance of multimeric gephyrin in test [3] of 20%.
